T1: AtNPF2.9 (Arabidopsis thaliana, UniProt Q9M9V7)
T1 construct: gene NPF2.9; full-length cDNA from transporter library, cRNA expressed in Xenopus laevis oocytes
T1 sequence (Q9M9V7 1-587): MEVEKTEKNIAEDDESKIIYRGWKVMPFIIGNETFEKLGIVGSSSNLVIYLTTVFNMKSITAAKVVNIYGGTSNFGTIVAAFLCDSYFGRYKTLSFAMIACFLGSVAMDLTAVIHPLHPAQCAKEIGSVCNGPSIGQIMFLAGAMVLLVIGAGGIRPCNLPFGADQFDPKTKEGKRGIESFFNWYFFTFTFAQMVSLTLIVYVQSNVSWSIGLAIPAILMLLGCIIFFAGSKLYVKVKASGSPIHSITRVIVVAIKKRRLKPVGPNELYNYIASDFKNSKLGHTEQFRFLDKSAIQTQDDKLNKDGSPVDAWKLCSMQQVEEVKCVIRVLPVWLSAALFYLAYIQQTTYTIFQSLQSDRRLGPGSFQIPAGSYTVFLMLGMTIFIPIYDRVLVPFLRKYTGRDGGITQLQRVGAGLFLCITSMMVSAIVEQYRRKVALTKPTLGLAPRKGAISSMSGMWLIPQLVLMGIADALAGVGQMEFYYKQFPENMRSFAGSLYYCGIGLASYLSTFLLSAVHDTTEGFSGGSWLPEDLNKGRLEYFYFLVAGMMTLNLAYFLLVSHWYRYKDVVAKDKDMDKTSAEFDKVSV

T2: AtNAT4 (Arabidopsis thaliana, UniProt P93039)
T2 construct: gene NAT4; full-length cDNA from transporter library, cRNA expressed in Xenopus laevis oocytes
T2 sequence (P93039 1-526): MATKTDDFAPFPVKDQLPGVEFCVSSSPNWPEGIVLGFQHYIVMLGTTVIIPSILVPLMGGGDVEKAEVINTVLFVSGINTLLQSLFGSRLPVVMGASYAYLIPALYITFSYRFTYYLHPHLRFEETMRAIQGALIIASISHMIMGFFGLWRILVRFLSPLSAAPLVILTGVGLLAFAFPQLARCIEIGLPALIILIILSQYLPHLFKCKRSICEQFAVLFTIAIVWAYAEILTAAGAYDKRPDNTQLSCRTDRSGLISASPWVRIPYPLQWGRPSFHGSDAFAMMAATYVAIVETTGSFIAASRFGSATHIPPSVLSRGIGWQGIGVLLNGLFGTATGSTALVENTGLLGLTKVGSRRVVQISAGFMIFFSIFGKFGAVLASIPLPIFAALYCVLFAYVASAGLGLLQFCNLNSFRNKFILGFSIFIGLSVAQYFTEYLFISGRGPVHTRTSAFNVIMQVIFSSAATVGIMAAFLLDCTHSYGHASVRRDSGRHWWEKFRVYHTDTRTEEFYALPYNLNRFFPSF


What was measured:
AtNPF2.9 = target: T1, AtNPF2.9; assay: uptake screen in Xenopus oocytes, LC-MS; format: cell-based; conditions: pH 5.0; Kulori buffer; 0.5-1 mM loganin, 1 h
AtNAT4 = target: T2, AtNAT4; assay: uptake screen in Xenopus oocytes, LC-MS; format: cell-based; conditions: pH 5.0; Kulori buffer; 0.5-1 mM loganin, 1 h
[1] = substrate: COC(=O)C1=CO[C@@H](O[C@@H]2O[C@H](CO)[C@@H](O)[C@H](O)[C@H]2O)[C@@H]2[C@@H](C)[C@@H](O)C[C@H]12; assay: uptake into Xenopus oocytes, LC-MS, Michaelis-Menten fit; format: cell-based, Catharanthus roseus; conditions: pH 5.0, Kulori buffer, 12.5 µM to 2 mM loganin

uptake screen in Xenopus oocytes, LC-MS (AtNPF2.9)	uptake screen in Xenopus oocytes, LC-MS (AtNAT4)	Molecule	Km [1] [µM]
initially screened cDNA library	Two transporters were identified	COC(=O)C1=CO[C@@H](O[C@@H]2O[C@H](CO)[C@@H](O)[C@H](O)[C@H]2O)[C@@H]2[C@@H](C)[C@@H](O)C[C@H]12 [loganin, (1S,4aS,6S,7R,7aS)-6-hydroxy-7-methyl-1-[(2S,3R,4S,5S,6R)-3,4,5-trihydroxy-6-(hydroxymethyl)oxan-2-yl]oxy-1,4a,5,6,7,7a-hexahydrocyclopenta[c]pyran-4-carboxylate]	
		CrNPF2.5 (Catharanthus roseus) (protein, full-length, Gateway cloned from C. roseus cDNA into pOO2-GW, cRNA expressed in Xenopus laevis oocytes) MEENQEHKAIKNHEPNYRGIKAMPFVIGNETFEKLGTIGTSTNLLIYLTSVFHMKTITATNLVNIFNGTCNFGTLVGAFLCDTYFGRYNTLGFASVSSFLGMLVLTLTAAIKNLHPEACGNEEGSKCISPSGGQMAFLLSGFAFLIVGASGIRPCNLAFGADQFNPNTDSGRRGINSFFNWYYFTYTFAMMVSLTIIVYVQSNISWSIGLAIPTFLMFLSCATFFVGTRIYVRVLPEGSPLISVARVIVSAFKKRKLELPDEPKLSLFNHSASSTSSINSKISYTDQFRFLNKAAIITSEDEFNSDGSVKNPWRICTIQQVEEVKCLLKLIPVWISCIIYYISVVQQQNYVVFQALQSDRRLFGTSKFKIPAASYIVIAMLALTIWIPIFDRIIVPCLQKITGKEGGITILQRMGIGMVLSVLTMITSALVESKRRKFALNRPTLGFEPRKGAISSMSGVWLIPQLALSGLSEAFTIIGENELFYKECPENMRSIAMALVFVGFAGSSYLSSLLSSIVQKTTGGNESWLAEDLNRGRLDYFYYLIGALETLNLIYFLVCSKWYKYKQVEKIPQVAMEKLNNVEEKSLV	387 ± 57
		CrNPF2.4 (Catharanthus roseus) (protein, full-length, Gateway cloned from C. roseus cDNA into pOO2-GW, cRNA expressed in Xenopus laevis oocytes) MAEKSSSIDATENGFVKIKEPNHRGVKAMPFIVGNETFEKLGTLGTSANLLIYLTTVFHMKSITATNLINIFNGTCNFGTLLGAFFSDTYFGRYKTLGFASVSSTLGMLILTLTAAISKLHPPSCEKNSKACSGPTSGQFAFLFTAFLFLIIGASGIRPCNLAFGADQFNPNTESGRKGTNSFFNWYYFTFTFAMMVSLTVIVYVQSSISWALGLAIPTFLMLLSCVFFFVGSRIYVKVLPEGSPLTSMMQVIVAAFRKRKLNLPDHQPWDSLFNYISPSSINSKLSYTDQFRWLNKAAIKTSKDHLYAEGSTANPWRLCSMQQVEEVKCVIRSIPIWTSGVLYYVVLNQMSTYLVFQALQSDRRIGKTNFKIPAASYTVFSMLSLSIWIPIYDRIIVPFLRKITKTEQGITILQKMGFGLVIAVITMVVSAIIEDKRRVIALTRPIVGIEERKGGISSLSGFWLVPQLALAGISEAFTVIAQVEFFYKQFPENMRSFGGSFLFCGFAISSYLSSFLISIVHKVTRNSSGGNWLDEDLNKARLDYFYYLVAGLEVLNFGYFLVCAHWYRYKETQSGNEIAMEQILDEPKKNLDVV	237 ± 35
		CrNPF2.6 (Catharanthus roseus) (protein, full-length, Gateway cloned from C. roseus cDNA into pOO2-GW, cRNA expressed in Xenopus laevis oocytes) MEKNEKLVPNGTKEDGKVAAKNEPNYRGIKAMPFVLGNETCEKLGTIGTSSNLSVYLSTVFHMNTMSANNVINIFNGTCYLGSLVGAFLCDTYFGRYKTLGLGSVASFLGMLMLTLTAAISTLHPTNCDNSGDCKGPSAGQMAFLVGGFVLMVIGASGIRPCNLAFGADQFNPNTESGRRGINSFFNWYYFTYTFAVMVSATIIVYVQSDISWSIGFAIPTSLMFLSCALFFAGTWLYVKVLPQGSPMTSLVQVIVVSVKKRRLKLPGEPSLLFNHIPSNAINSKLPRTNNFRFLDKAAILTPEDKVNPDGSAANKWKLCSIQQVEEVKCVLRVLPIWIAGVIFQISVTQQSNYVPFQAFQSDRHLIKGNKFQIPAGTYNVFSMLALTIWLPIYDRIIIPLLRRWTKKEDGITLLQRMGVGIVLSILSMLVSALVESRRRNLALTRPTLGIQEGQGSISSMSALWFVPQLALMGLAEGFTFIGENELFYKEFPENMRSIAASLVLCGVAVASYLTSFIAEIVHKTTRSGTRDWLAQDLNKARLDYFFYMVAVLEALNLVYFLVCAKWYRYKGTGDLGKLEVAMEKLETEKHLV	60 ± 5
